Assay results: patent US20240261333A1 (published 2024)

T1: DDX1 (human, UniProt Q92499 1-740)
T1 construct: also called NP_004930.1
T1 sequence (looked up): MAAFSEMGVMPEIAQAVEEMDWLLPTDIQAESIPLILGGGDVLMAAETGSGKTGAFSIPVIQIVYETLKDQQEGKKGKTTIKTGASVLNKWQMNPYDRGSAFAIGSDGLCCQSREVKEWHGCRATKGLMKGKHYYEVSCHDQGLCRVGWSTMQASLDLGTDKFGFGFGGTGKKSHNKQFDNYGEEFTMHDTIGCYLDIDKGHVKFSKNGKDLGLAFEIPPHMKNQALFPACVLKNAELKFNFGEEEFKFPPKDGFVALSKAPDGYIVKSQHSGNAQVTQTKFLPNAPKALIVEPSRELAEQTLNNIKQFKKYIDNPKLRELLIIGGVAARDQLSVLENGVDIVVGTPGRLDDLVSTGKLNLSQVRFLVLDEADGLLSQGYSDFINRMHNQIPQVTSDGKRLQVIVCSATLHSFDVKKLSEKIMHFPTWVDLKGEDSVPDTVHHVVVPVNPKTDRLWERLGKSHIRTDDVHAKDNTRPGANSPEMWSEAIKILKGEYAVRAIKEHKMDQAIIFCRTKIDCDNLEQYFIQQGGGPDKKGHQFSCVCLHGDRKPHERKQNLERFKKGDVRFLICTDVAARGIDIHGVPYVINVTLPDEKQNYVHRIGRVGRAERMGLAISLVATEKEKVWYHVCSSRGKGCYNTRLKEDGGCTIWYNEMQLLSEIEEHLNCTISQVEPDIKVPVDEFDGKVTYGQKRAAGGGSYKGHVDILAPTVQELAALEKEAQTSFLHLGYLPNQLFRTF

T2: HNRNPM (human, UniProt P52272 2-730)
T2 construct: also called NP_005959.2 (+1)
T2 sequence (looked up): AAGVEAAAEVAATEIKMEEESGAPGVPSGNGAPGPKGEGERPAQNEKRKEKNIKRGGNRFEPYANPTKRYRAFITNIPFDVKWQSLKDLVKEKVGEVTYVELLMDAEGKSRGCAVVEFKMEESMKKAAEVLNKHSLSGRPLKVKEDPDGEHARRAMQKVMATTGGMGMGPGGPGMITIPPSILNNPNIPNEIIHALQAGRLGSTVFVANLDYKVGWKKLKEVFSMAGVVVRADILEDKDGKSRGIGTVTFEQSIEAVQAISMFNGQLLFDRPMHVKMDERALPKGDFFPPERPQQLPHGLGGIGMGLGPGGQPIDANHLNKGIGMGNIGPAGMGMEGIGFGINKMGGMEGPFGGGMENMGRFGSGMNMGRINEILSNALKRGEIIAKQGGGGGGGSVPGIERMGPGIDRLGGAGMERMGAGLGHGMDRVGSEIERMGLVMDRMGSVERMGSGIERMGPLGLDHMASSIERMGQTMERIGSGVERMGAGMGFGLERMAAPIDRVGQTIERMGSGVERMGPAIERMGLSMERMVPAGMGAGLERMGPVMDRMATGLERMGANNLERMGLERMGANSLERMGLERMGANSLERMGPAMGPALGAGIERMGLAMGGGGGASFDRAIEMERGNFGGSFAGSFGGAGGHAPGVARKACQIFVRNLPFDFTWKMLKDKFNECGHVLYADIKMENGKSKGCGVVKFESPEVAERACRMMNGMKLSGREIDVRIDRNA

T3: PSMA3 (human, UniProt P25788 2-255)
T3 construct: also called NP_002779.1 (+1)
T3 sequence (looked up): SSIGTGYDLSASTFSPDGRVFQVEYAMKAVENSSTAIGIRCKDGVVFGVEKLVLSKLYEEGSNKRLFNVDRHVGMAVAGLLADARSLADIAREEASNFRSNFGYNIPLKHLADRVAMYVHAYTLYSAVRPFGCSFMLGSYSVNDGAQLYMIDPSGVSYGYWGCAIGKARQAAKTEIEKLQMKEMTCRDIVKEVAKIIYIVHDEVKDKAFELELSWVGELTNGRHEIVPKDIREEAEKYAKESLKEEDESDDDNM

B1: C-terminal FLAG tagged B3GNT2 (enzyme, human, UniProt Q9NY97 1-397, looked up)
chain: MSVGRRRIKLLGILMMANVFIYFIMEVSKSSSQEKNGKGEVIIPKEKFWKISTPPEAYWNREQEKLNRQYNPILSMLTNQTGEAGRLSNISHLNYCEPDLRVTSVVTGFNNLPDRFKDFLLYLRCRNYSLLIDQPDKCAKKPFLLLAIKSLTPHFARRQAIRESWGQESNAGNQTVVRVFLLGQTPPEDNHPDLSDMLKFESEKHQDILMWNYRDTFFNLSLKEVLFLRWVSTSCPDTEFVFKGDDDVFVNTHHILNYLNSLSKTKAKDLFIGDVIHNAGPHRDKKLKYYIPEVVYSGLYPPYAGGGGFLYSGHLALRLYHITDQVHLYPIDDVYTGMCLQKLGLVPEKHKGFRTFDIEEKNKNNICSYVDLMLVHSRKPQEMIDIWSQLQSAHLKC
notes: FLAG-tagged ORF overexpressed in cells; pulled down from lysate with mouse anti-FLAG; also called C-FLAG B3GNT2; C-term flag; not shown: C-terminal FLAG tag
B2: C-terminal FLAG tagged B3GNT2 (enzyme, human, UniProt Q9NY97 1-397, looked up)
chain: B1 chain
notes: FLAG-tagged ORF overexpressed in A375 cells; pulled down from the lysate with mouse anti-FLAG; also called C-FLAG B3GNT2; C-term flag; not shown: C-terminal FLAG tag

What was measured:
Assay in all cases: co-IP with anti-FLAG, C-FLAG B3GNT2, mass spectrometry
DDX1 = molecular target: T1, DDX1
Experimental: (§1) Cells were plated in 10-cm cell culture dishes and grown to 60-80% confluency. For each condition, two biological replicates were harvested for co-IP. Cells were washed with PBS and 4 mL of lysis buffer (20 mM HEPES, 1% Triton X-100, 150 mM NaCl, 1 mM EDTA, and 10% glycerol) containing protease inhibitor cocktail was added. Cells were scraped and lysate was incubated at 4° C. under rotary agitation for 1 h. Lysate was centrifuged at 14,000×g for 10 min at 4° C. Supernatant was transferred to a new tube and an aliquot was taken as the input. […] For Western blots, 10 μg/mL Chicken Anti-FLAG (Aves labs ET-DY100) and IgY control (R&D Systems AB-101-C) antibodies were biotinylated (Thermo Fisher Scientific 90407) and added to the respective conditions. Lysates with antibodies were incubated at 4° C. under rotary agitation overnight. For each mL of lysate, 50 μL of Pierce Protein A/G Magnetic Beads (Mass spectrometry; Thermo Fisher Scientific 88803) or Pierce Streptavidin Magnetic Beads (Western blot; Thermo Fisher Scientific 88817) was washed twice with lysis buffer. Lysates with antibodies were added to the beads and incubated at 4° C. under rotary agitation for 4 h. Beads were washed with lysis buffer 3 times and resuspended in lysis buffer for storage.
(§2) Magnetic beads were resuspended in 100 mM Tris pH 7.8, reduced, alkylated and digested with trypsin at 37° ° C. overnight. This solution was subjected to solid phase extraction to concentrate the peptides and remove unwanted reagents followed by injection onto a Shimadzu HPLC with fraction collector. Eight fractions were collected and after concentration were injected on a Waters NanoAcquity HPLC equipped with a self-packed Aeris 3 μm C18 analytical column 0.075 mm by 20 cm, (Phenomenex). Peptides were eluted using standard reverse-phase gradients. The effluent from the column was analyzed using a Thermo Orbitrap Elite mass spectrometer (nanospray configuration) operated in a data dependent manner for 54 minutes. The resulting fragmentation spectra were correlated against the known database using Proteome Discover 1.4 (Thermo Fisher Scientific).

HNRNPM = molecular target: T2, HNRNPM
Experimental: as §1, §2

YBX1 = molecular target: T4, YBX1 (human, UniProt P67809 2-324)
T4 construct: also called NP_004550.2
T4 sequence (P67809 2-324 limits assumed): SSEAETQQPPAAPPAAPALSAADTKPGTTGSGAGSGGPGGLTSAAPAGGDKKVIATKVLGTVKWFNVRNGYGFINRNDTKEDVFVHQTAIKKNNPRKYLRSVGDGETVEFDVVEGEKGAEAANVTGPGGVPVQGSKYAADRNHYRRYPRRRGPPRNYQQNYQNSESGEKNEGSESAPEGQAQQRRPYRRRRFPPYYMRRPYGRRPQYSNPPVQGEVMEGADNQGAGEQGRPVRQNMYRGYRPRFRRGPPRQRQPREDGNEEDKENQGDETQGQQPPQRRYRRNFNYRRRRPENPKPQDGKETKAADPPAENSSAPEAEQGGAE
Experimental: as §1, §2

PSMA3 = molecular target: T3, PSMA3
Experimental: as §1, §2

DDX3X = molecular target: T5, DDX3X (human, UniProt O00571 2-662)
T5 construct: also called NP_001180345.1 (+1)
T5 sequence (O00571 2-662 limits assumed): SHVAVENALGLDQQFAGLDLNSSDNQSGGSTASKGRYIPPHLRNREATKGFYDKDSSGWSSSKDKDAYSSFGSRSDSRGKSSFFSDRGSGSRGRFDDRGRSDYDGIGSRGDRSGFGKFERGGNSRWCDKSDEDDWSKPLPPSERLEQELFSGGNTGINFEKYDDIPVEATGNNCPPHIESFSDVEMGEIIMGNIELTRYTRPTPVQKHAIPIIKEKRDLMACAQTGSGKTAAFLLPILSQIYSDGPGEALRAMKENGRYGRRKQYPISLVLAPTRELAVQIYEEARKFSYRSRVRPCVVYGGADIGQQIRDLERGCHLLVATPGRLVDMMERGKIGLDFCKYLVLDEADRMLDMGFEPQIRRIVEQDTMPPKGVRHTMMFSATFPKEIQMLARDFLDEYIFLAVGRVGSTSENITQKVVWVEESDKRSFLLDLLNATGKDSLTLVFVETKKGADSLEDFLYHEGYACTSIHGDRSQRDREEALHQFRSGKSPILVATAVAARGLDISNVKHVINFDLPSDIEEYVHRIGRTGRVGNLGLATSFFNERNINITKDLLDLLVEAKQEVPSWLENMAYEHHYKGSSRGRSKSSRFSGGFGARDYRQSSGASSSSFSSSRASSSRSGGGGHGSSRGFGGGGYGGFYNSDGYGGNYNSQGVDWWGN
Experimental: as §1, §2

RPS20 = RPS20 (human, UniProt P60866 2-119)
Experimental: as §1, §2

Row | Binder | co-IP mass spectrometry count (DDX1) | co-IP mass spectrometry count (HNRNPM) | co-IP mass spectrometry count (YBX1) | co-IP/MS count, C-term flag (PSMA3) | co-IP/MS count, C-term flag (DDX3X) | co-IP/MS count, C-term flag (RPS20)
1 | B1 | 4 | 8 | 9 | – | – | –
2 | B2 | – | – | – | 0 | 23 | 7
